Laboratory results: US9884910B2, “Anti-PDGF-C antibodies” (ThromboGenics NV, priority 2012, dated 2018)

Assays:
[1] = biological target: T1, PDGFRα activation by human PDGF-C (Homo sapiens, UniProt Q9NRA1); assay: PathHunter PDGFRα receptor tyrosine kinase assay in U2OS PDGFRα PLCG1 cells; type: cell-based; conditions: humanized antibodies; * average of 3 measurements
T1 construct: the growth factor domain of PDGF-C (amino acids 235-345 of human PDGF-C); purchased R&D Systems 1687-CC/CF; host or cells: ligand added to U2OS PDGFRα PLCG1 cells (DiscoveRx, assay 93-0823C3) that express the transfected receptor
T1 sequence (Q9NRA1 235-345): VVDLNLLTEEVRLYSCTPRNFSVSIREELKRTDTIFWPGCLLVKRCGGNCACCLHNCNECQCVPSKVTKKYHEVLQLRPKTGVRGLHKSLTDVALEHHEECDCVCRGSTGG
Description: To evaluate the inhibitory activity of anti-human PDGF-C antibodies on PDGFRα activation by human PDGF-C, the PathHunter® receptor tyrosine kinase assay for PDGFRα (93-0823C3) from DiscoveRx® was used. […] A small complementing fragment of β-gal, the Prolink™ tag (PK) has been fused recombinantly to the intracellular C-terminus of the receptor tyrosine kinase PDGFRα. The larger portion of β-gal, termed EA for enzyme acceptor, is co-expressed with an SH2 (Src Homology 2) phosphotyrosine binding domain. Ligand-induced activation of the receptor results in dimerization and intra-cellular cross-phosphorylation of the receptor. Subsequently, the SH2 domain specifically binds the phosphorylated receptor resulting in the complementation of the two β-gal fragments PK and EA, and formation of a functional β-gal enzyme. Following addition of a β-gal substrate, an easily detectable chemiluminescent signal is produced which is directly correlated to receptor activation. The LumiLITE™ microplate reader is fully compatible with all EFC-based assays of DiscoveRx® and is therefore used.
For the PathHunter® PDGFRα, assay, U2OS PDGFRα, PLCG1 (phospholipase Cγ as the source of the SH2 domain) cells from DiscoveRx® were used. Frozen cells were stored in liquid nitrogen. Upon thawing, cells were resuspended in pre-warmed thawing medium (i.e. culture medium without the selection antibiotics Geneticin and Hygromycin B). After 48 hours of culture in a 5% CO2 incubator at 37° C., thawing medium was replaced by culture medium (MEM Eagle 1× (30-2003 from Invitrogen), 10% fetal bovine serum (SH30071.03 from Perbio Science), 1× Penicillin-Streptomycin-Glutamine (10378-016 from Invitrogen), 250 μg/ml Hygromycin B (10687-010 from Invitrogen), 500 μg/ml Geneticin (10131-035 from Invitrogen)). Once confluence was reached, cells were passaged with a ⅓ dilution every 2-3 days using Accutase (L11-007 from PAA). Cells were maintained in a non-confluent state during routine culture.
In the PathHunter® PDGFRα, assay, the U2OS PDGFRα, PLCG1 cells from DiscoveRx® cultured up to 10 passages were used. Cells were seeded at 20.000 cells in 100 μl per well in 96-well white culture-treated microplates with clear bottom (3610 from Corning). The PathHunter® Cell Plating 16 Reagent (93-0563R16 from DiscoveRx®) was employed as seeding medium. Following 24 hours of culture in 5% CO2 at 37° C., 25 μl of a 5-fold concentrated agonist solution in Cell Plating 16 Reagent was used per well to stimulate the cells. Recombinant human PDGF-C from R&D Systems (1687-CC/CF; Va1235-Gly345) was applied as agonist. After 3 hours incubation at room temperature, 60 μl of PathHunter® detection reagent (93-0001 from DiscoveRx®; 1 part Galacton Star® Substrate, 5 parts Emerald II™ Solution, and 19 parts of PathHunter® Cell Assay Buffer) was added. Cells were placed at room temperature and in the dark for another hour before luminescence was measured with the LumiLITE™ microplate reader. With GraphPad Prism® software, a non-linear regression analysis was performed using the obtained luminescent values in order to generate a sigmoidal agonist dose-response curve with variable slope. The EC50 (i.e. half maximal effective concentration) and EC80 value (i.e. the effective concentration that leads to 80% of the maximal response) for human PDGF-C was calculated.
To evaluate the inhibitory activity of anti-human PDGF-C antibodies on PDGFRα, activation by human PDGF-C, equal volumes of […] concentrated solutions of anti-human PDGF-C antibodies and the EC80 of human PDGF-C, prepared in Cell Plating 16 Reagent, were mixed and the assay was performed as described above. As positive controls, an anti-human PDGF-C polyclonal goat IgG antibody (AF1560 from R&D Systems) and recombinant human PDGFRα, Fc chimera (6765-PR from R&D Systems) were employed. […]

[2] = biological target: T2, PDGF-C (Homo sapiens, UniProt Q9NRA1); assay: Surface Plasmon Resonance affinity of anti-PDGF-C antibodies for PDGF-C (Biacore 3000); type: binding; conditions: humanized antibodies; as in Example 3
T2 construct: the growth factor domain of PDGF-C (amino acids 235-345 of human PDGF-C); purchased R&D Systems 1687-CC/CF
T2 sequence (Q9NRA1 235-345): as above
Description: The different antibodies were each separately coated to a CM5 chip at a density of 1680 RU using standard amine chemistry. Different concentrations (200, 175, 150, 125, 100, 75, 50, 25, 12.5, 6.25, 3.125 & 0 nM) of PDGF-C (R&D Systems, Cat. 1687-CC/CF) were injected over the coated antibody for 5 min, then buffer was flowed for 10 min to monitor the dissociation of the captured antigen. The surface was regeneration between each run with a single injection of glycine-HCl, pH 2.5. Affinities were obtained by analyzing the sensorgrams with the help of the BIAevaluation 4.1 software assuming a 1:1 interaction. The experiment was performed with a Biacore 3000 instrument.
The affinity of the above-listed exemplary humanized anti-PDGF-C antibodies for PDGF-C was analysed (as in Example 3) and the humanized antibodies were subsequently assessed in the in vitro bioassay described in Example 4.

B1: Humanized mAb 29H1: humanized 29H1; VH SEQ ID NO:106, VL SEQ ID NO:107 (antibody, V domains shown)
VH: EVQLLESGGGLVQPGGSLRLSCAASGFTFSNYGMSWVRQTPGKGLEWVATIGSGGHYTYYPDSVKGRFTISRDNAKNTLYLQMNSLRAEDTAVYYCARQAPLWDCSDYWGQGTLLTVSS
VL: DVVMTQSPLSLPVTLGQPASISCRSSQTIVHSDGTTYLEWYLQKPGQSPRLLIYKVSNRFSGVPDRFSGSGSGTDFTLKISRVEAEDVGVYYCFQGSHVPPTFGQGTKLEIK
modifications: humanized variable heavy chain murine monoclonal antibody 29 H1; humanized variable light chain murine monoclonal antibody 29 H1
- IC50 [1]: 8.24 nM
- Kd [2]: 0.7 nM
